Reference: paper PMC8723827 (2022)

Biological target: His-tagged SARS-CoV-2 RBD (early pandemic, Wuhan) (SARS-CoV-2, UniProt P0DTC2)
Experiment: SPR

Binder	koff [s⁻¹]
Beta-55 mAb (IgG) (antibody, V domains shown) VH: QVQLQESGPGLVKPSETLSLTCTVSGDSISSSRYYWGWIRQPPGKGLEWIGTFYYSGITYYNPSLKSRVTIFVDTSKNQFSLKLSSVTAADTAVYYCARPRPPDYYDNSGALLFDIWGQGTMVTVSS VL: AIRMTQSPSTLSASVGDRVTIACRASQSISAWLAWYQQKPGKAPKLLIYKASSLESGVPSRFSGSGSGTEFTLTINSLQPDDFATYYCQQYISSSPWTFGQGTKVEIK	0.00018
EY6A mAb (IgG) (antibody, V domains shown) VH: EVQLVESGGGVVQPGRSLRLSCAASAFTFSSYDMHWVRQAPGKGLEWVAVISYDGSNKYYADSVKGRFTISRDNSKNTLYLQMNSLRAEDTAVYYCAKDGGKLWVYYFDYWGQGTLVTVSS VL: not shown	0.0048
